Where a chain is given by its changes, count along the chain named.
Tests used:
GST-PT8-CTS512A = test system: T1, GST-PT8-CTS512A
T1 sequence: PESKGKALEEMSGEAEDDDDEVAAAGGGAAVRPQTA

[1] = test system: T2, GST-PT8-CTS517 (not phosphorylated)
T2 sequence: T1 sequence with A7S

GST-PT8-CTS517A = test system: T3, GST-PT8-CTS517A
T3 sequence: T1 sequence with A7S, S12A

Substance: GST-CK2α3
- in vitro phosphorylation assay ([γ-32P]ATP) (GST-PT8-CTS512A): Mutation of S517, but not S512, prevented phosphorylation of PT8-CT
- in vitro phosphorylation assay ([γ-32P]ATP) [1]: the PT8-CT was phosphorylated by the catalytic subunit CK2 α3
- in vitro phosphorylation assay ([γ-32P]ATP) (GST-PT8-CTS517A): Mutation of S517, but not S512, prevented phosphorylation of PT8-CT

From patent US20160355836
